{"source": "patent US20250051802", "tested_on": "SluCas9", "test": "cell_activity", "settings": "amplicon sequencing, HEK 293T", "data": [{"sequence": "CCAUUCCCUCUUUAGCCAGAG / CCATTCCCTCTTTAGCCAGAGCGGGGT / ACCCCGCTCTGGCTAAAGAGGGAATGG [pBLR194 guide spacer ; pBLR194 target with PAM]", "values": [{"measurement": "activity", "setting": "PAM NNGG (CGGGGT)", "result": 65.7, "unit": "%"}]}, {"sequence": "UGCCCUGUGGGGCAAGGUGAA / TGCCCTGTGGGGCAAGGTGAAGTGGAT / ATCCACTTCACCTTGCCCCACAGGGCA [pBLR197 guide spacer ; pBLR197 target with PAM]", "values": [{"measurement": "activity", "setting": "PAM NNGG (GTGGAT)", "result": 1.9, "unit": "%"}]}, {"sequence": "GGCCGGCGGCGGACAGUGGAC / GGCCGGCGGCGGACAGTGGACGCGGCGGC / GCCGCCGCGTCCACTGTCCGCCGCCGGCC [pBLR179 guide spacer ; pBLR179 target with PAM]", "values": [{"measurement": "activity", "setting": "PAM NNGG (GCGGCGGC)", "result": 72.8, "unit": "%"}]}]}
